Results on three molecules are retold here after patent publication US20140087995A1 (published 2014).

Numbered stars: 1 amine (or outer) side, 2 acyl side, 3 side chain; on linkers, the order of the positions; unused ones are H or OH. Bridge positions count the residues as written; N and C are the ends. Side chains are listed from the residue outwards. Ends that are not written are not given here. * marks the point of attachment. C20 diacid = O=C(O)CCCCCCCCCCCCCCCCCCC(=O)*; γGlu = O=C(O)[C@H](CCC(=O)[*:2])N[*:1]; AEEA = NCCOCCOCC(=O)O

As a reminder, the IC50 is the concentration that gives 50% inhibition.

The target of assay [1] is T1, rat calcitonin receptor (rat, UniProt P32214 25-516).
T1 construct: whole, on cells; Used as membranes prepared from BHK tk'ts 13 cells transiently transfected with the rat calcitonin receptor (Assay VIII); also called rCTR; rat calcitonin (a) receptor
T1 sequence (looked up): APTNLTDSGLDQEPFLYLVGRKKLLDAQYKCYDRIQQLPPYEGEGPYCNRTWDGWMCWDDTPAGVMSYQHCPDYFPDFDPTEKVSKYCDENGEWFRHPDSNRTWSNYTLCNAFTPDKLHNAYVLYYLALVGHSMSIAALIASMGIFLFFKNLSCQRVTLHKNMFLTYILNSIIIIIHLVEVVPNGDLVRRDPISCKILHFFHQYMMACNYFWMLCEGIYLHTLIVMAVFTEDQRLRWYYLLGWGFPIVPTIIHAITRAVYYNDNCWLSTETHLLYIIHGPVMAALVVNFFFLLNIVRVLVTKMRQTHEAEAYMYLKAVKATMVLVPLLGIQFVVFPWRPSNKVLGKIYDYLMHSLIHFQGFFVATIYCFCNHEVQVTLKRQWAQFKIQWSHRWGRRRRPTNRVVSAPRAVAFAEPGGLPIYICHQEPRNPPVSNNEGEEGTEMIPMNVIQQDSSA
In words: IC50 on rat CTR divided by IC50 on rat amylin receptor (Assays VIII/VI).

In assay [2] the target is T2, rat amylin receptor (rat calcitonin receptor + rat RAMP 3) (rat, UniProt P32214 25-516; Q9JJ73 23-147).
T2 construct: whole, on cells; Used as membranes prepared from BHK tk'ts 13 cells transiently transfected with rat calcitonin receptor and rat RAMP 3 (Assay VI); also called rAmylin-R; rat amylin 3(a) receptor
T2 sequence (looked up) 1: T1 sequence (looked up)
T2 sequence (looked up) 2: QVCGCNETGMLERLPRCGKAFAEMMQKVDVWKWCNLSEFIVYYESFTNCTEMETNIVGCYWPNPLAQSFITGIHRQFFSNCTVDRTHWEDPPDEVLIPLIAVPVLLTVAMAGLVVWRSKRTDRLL
Put plainly: SPA competition with 125I-rat amylin, membranes of BHK cells with rat CTR + rat RAMP3 (Assay VI).

Assay [3] concerns the target T1, rat calcitonin receptor. Put plainly: SPA competition with 125I-calcitonin, membranes of BHK cells with rat CTR (Assay VIII).
The target of assay [4] is T3, human calcitonin receptor (human, UniProt P30988 25-474).
T3 construct: whole, on cells; Used as membranes prepared from a BHK tk'ts 13 cell line stably transfected with the human calcitonin receptor (Assay VII); also called hCTR; hCT
T3 sequence (looked up): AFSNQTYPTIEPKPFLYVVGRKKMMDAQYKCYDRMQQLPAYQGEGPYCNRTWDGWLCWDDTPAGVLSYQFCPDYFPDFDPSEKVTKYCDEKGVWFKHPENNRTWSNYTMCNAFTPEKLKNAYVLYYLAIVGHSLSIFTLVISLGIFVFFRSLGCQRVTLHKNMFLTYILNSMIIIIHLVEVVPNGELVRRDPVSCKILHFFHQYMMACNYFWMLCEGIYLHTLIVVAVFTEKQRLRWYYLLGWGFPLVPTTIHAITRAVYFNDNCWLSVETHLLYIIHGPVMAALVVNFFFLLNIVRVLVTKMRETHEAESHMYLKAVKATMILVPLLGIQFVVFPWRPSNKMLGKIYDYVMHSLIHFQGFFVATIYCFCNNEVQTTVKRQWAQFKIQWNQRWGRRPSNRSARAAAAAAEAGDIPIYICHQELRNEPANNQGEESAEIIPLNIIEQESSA
Put plainly: IC50 on human CTR divided by IC50 on human amylin receptor (Assays VII/V). Summed up: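 Competition binding by SPA with cell membranes (35 ng/μL) and SPA beads in 50 mM Hepes pH 7.4 with 1 mM CaCl2, 5 mM MgCl2, 0.1% OA and 0.02% Tween20. Incubated 120 min at 25 °C with shaking, then counted.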

The target of assay [5] is T4, rat amylin receptor (rat calcitonin receptor + rat RAMP 3) (rat, UniProt P32214 25-516; Q9JJ73 23-147).
T4 construct: whole, on cells; Membranes of transiently transfected BHK tk'ts 13 cells (Assay VI); also called rAmylin-R; rat amylin 3(a) receptor
T4 sequence (looked up) 1: T1 sequence (looked up)
T4 sequence (looked up) 2: T2 sequence (looked up) 2
In words: SPA competition with 125I-rat amylin, membranes of BHK cells with rat calcitonin receptor + rat RAMP3 (Assay VI).

In assay [6] the target is T5, human calcitonin receptor (human, UniProt P30988 25-474).
T5 construct: whole, on cells; Membranes of a stably transfected BHK cell line (Assay VII); also called hCTR; hCT
T5 sequence (looked up): T3 sequence (looked up)
Put plainly: ratio IC50 human calcitonin receptor / IC50 human amylin receptor (reference). As for the experimental part: The resulting pellet was resuspended, homogenized and centrifuged (20.000 rpm, 15 min) in a buffer containing 20 mM Na-HEPES and 0.1 mM EDTA (pH 7.4, buffer 2). The resulting pellet was resuspended in buffer 2 and protein concentration was measured (BCA protein Assay, Pierce). The homogenate was kept cold during the whole procedure. The membranes were kept at −80° C. until use. The assay was performed in a 384 well Optiplate (PerkinElmer) in a total volume of 40 ul. Membranes were mixed with SPA beads. Final concentration of membranes 35 ng/μL final and SPA beads was 0.05 mg/well. Test-compounds were dissolved in DMSO and further diluted in assay buffer (50 mM Hepes, pH 7.4, 1 mM CaCl2, 5 mM MgCl₂, 0.1% OA and 0.02% Tween20). […] The final mixture was incubated with shaking at 400 rpm for 120 min at 25° C. prior to centrifugation (1500 rpm, 10 min). Samples were analyzed on TopCounter™ (Packard). The IC₅₀ was calculated using (one site binding competition analysis) GraphPad Prism5 as a measure of receptor affinity.
Membranes were prepared in the following way; the cells were rinsed with PBS and incubated with Versene for approximately 5 min before harvesting. The cells were flushed with PBS and the cell-suspension was centrifuged for 5 min at 1000 rpm. Cells were homogenized (Ultrathurrax) in a buffer containing 20 mM Na-HEPES and 10 mM EDTA (pH 7.4) and centrifuged at 20.000 rpm for 15 min. The resulting pellet was resuspended, homogenized and centrifuged (20.000 rpm, 15 min) in a buffer containing 20 mM Na-HEPES and 0.1 mM EDTA (pH 7.4, buffer 2). The resulting pellet was resuspended in buffer 2 and protein concentration was measured (BCA protein Assay, Pierce). The homogenate was kept cold during the whole procedure. The membranes were kept at −80° C. until use. Assay was performed in a 384 well Optiplate (PerkinElmer) in a total volume of 40 ul. Membranes were mixed with SPA beads.

The target in assay [7] is T6, rat calcitonin receptor (rat, UniProt P32214 25-516).
T6 construct: whole, on cells; Membranes of transiently transfected BHK tk'ts 13 cells (Assay VIII); also called rCTR
T6 sequence (looked up): T1 sequence (looked up)
In words: SPA competition with 125I-calcitonin, membranes of BHK cells with rat calcitonin receptor (Assay VIII).

In assay [8] the target is T6, rat calcitonin receptor. In words: ratio IC50 rat calcitonin receptor / IC50 rat amylin receptor (reference).

B1: N^ε-[2-[2-[2-[[(4S)-4-carboxy-4-(19-carboxynonadecanoylamino)butanoyl]amino]ethoxy]ethoxy]acetyl]Lys[Arg1,Arg17,Pro21,Pro27,His35]-h-amylin (peptide)
peptide: K([AEEA-γGlu-C20 diacid])RCNTATCATQRLANFLRHSSPNFGAIPSSTNVGSHTY-NH2
modifications: disulfide 3-8; N-terminus assumed
SMILES: CC[C@H](C)[C@H](NC(=O)[C@H](C)NC(=O)CNC(=O)[C@H](Cc1ccccc1)NC(=O)[C@H](CC(N)=O)NC(=O)[C@@H]1CCCN1C(=O)[C@H](CO)NC(=O)[C@H](CO)NC(=O)[C@H](Cc1c[nH]cn1)NC(=O)[C@H](CCCNC(=N)N)NC(=O)[C@H](CC(C)C)NC(=O)[C@H](Cc1ccccc1)NC(=O)[C@H](CC(N)=O)NC(=O)[C@H](C)NC(=O)[C@H](CC(C)C)NC(=O)[C@H](CCCNC(=N)N)NC(=O)[C@H](CCC(N)=O)NC(=O)[C@@H](NC(=O)[C@H](C)NC(=O)[C@@H]1CSSC[C@H](NC(=O)[C@H](CCCNC(=N)N)NC(=O)[C@@H](N)CCCCNC(=O)COCCOCCNC(=O)CC[C@H](NC(=O)CCCCCCCCCCCCCCCCCCC(=O)O)C(=O)O)C(=O)N[C@@H](CC(N)=O)C(=O)N[C@@H]([C@@H](C)O)C(=O)N[C@@H](C)C(=O)N[C@@H]([C@@H](C)O)C(=O)N1)[C@@H](C)O)C(=O)N1CCC[C@H]1C(=O)N[C@@H](CO)C(=O)N[C@@H](CO)C(=O)N[C@H](C(=O)N[C@@H](CC(N)=O)C(=O)N[C@H](C(=O)NCC(=O)N[C@@H](CO)C(=O)N[C@@H](Cc1c[nH]cn1)C(=O)N[C@H](C(=O)N[C@@H](Cc1ccc(O)cc1)C(N)=O)[C@@H](C)O)C(C)C)[C@@H](C)O
notes: Analogue of human amylin; also called compound 45
For B1, in the assay with rat calcitonin receptor [1], the “Ratio rCT/rAmylin binding” value amounted to 67.1. In addition, the figures for the half-inhibitory concentration (IC50) (in assay [2]; in the assay with rat calcitonin receptor [3]) were 0.623 nM and 41.8 nM, respectively. The “Ratio hCT/hAmylin binding” value in assay [4] was determined as 26.8.

B2: N^ε1-[(4S)-4-carboxy-4-(19-carboxynonadecanoylamino)butanoyl]-[Arg17,Pro21,Pro27]-h-amylin (peptide)
peptide: K([γGlu-C20 diacid])CNTATCATQRLANFLRHSSPNFGAIPSSTNVGSNTY-NH2
modifications: disulfide 2-7; N-terminus assumed
SMILES: CC[C@H](C)[C@H](NC(=O)[C@H](C)NC(=O)CNC(=O)[C@H](Cc1ccccc1)NC(=O)[C@H](CC(N)=O)NC(=O)[C@@H]1CCCN1C(=O)[C@H](CO)NC(=O)[C@H](CO)NC(=O)[C@H](Cc1c[nH]cn1)NC(=O)[C@H](CCCNC(=N)N)NC(=O)[C@H](CC(C)C)NC(=O)[C@H](Cc1ccccc1)NC(=O)[C@H](CC(N)=O)NC(=O)[C@H](C)NC(=O)[C@H](CC(C)C)NC(=O)[C@H](CCCNC(=N)N)NC(=O)[C@H](CCC(N)=O)NC(=O)[C@@H](NC(=O)[C@H](C)NC(=O)[C@@H]1CSSC[C@H](NC(=O)[C@@H](N)CCCCNC(=O)CC[C@H](NC(=O)CCCCCCCCCCCCCCCCCCC(=O)O)C(=O)O)C(=O)N[C@@H](CC(N)=O)C(=O)N[C@@H]([C@@H](C)O)C(=O)N[C@@H](C)C(=O)N[C@@H]([C@@H](C)O)C(=O)N1)[C@@H](C)O)C(=O)N1CCC[C@H]1C(=O)N[C@@H](CO)C(=O)N[C@@H](CO)C(=O)N[C@H](C(=O)N[C@@H](CC(N)=O)C(=O)N[C@H](C(=O)NCC(=O)N[C@@H](CO)C(=O)N[C@@H](CC(N)=O)C(=O)N[C@H](C(=O)N[C@@H](Cc1ccc(O)cc1)C(N)=O)[C@@H](C)O)C(C)C)[C@@H](C)O
notes: Analogue of human amylin; also called compound 48
For the molecule B2, in the assay with rat calcitonin receptor [1], the “Ratio rCT/rAmylin binding” value stood at 201. For the same molecule, the figures for the IC50 (in assay [2]; with rat calcitonin receptor [3]) were 0.558 nM and 112 nM, respectively. Also, the “Ratio hCT/hAmylin binding” value in assay [4] was 69.7.

B3: N^ε1-[(4S)-4-carboxy-4-[[(4S)-4-carboxy-4-(19-carboxynonadecanoylamino)butanoyl]amino]butanoyl]-[Glu14,Arg17,Pro21,Pro27,His34]-h-amylin (peptide)
peptide: K([γGlu-γGlu-C20 diacid])CNTATCATQRLAEFLRHSSPNFGAIPSSTNVGHNTY-NH2
modifications: disulfide 2-7; N-terminus assumed
SMILES: CC[C@H](C)[C@H](NC(=O)[C@H](C)NC(=O)CNC(=O)[C@H](Cc1ccccc1)NC(=O)[C@H](CC(N)=O)NC(=O)[C@@H]1CCCN1C(=O)[C@H](CO)NC(=O)[C@H](CO)NC(=O)[C@H](Cc1c[nH]cn1)NC(=O)[C@H](CCCNC(=N)N)NC(=O)[C@H](CC(C)C)NC(=O)[C@H](Cc1ccccc1)NC(=O)[C@H](CCC(=O)O)NC(=O)[C@H](C)NC(=O)[C@H](CC(C)C)NC(=O)[C@H](CCCNC(=N)N)NC(=O)[C@H](CCC(N)=O)NC(=O)[C@@H](NC(=O)[C@H](C)NC(=O)[C@@H]1CSSC[C@H](NC(=O)[C@@H](N)CCCCNC(=O)CC[C@H](NC(=O)CC[C@H](NC(=O)CCCCCCCCCCCCCCCCCCC(=O)O)C(=O)O)C(=O)O)C(=O)N[C@@H](CC(N)=O)C(=O)N[C@@H]([C@@H](C)O)C(=O)N[C@@H](C)C(=O)N[C@@H]([C@@H](C)O)C(=O)N1)[C@@H](C)O)C(=O)N1CCC[C@H]1C(=O)N[C@@H](CO)C(=O)N[C@@H](CO)C(=O)N[C@H](C(=O)N[C@@H](CC(N)=O)C(=O)N[C@H](C(=O)NCC(=O)N[C@@H](Cc1c[nH]cn1)C(=O)N[C@@H](CC(N)=O)C(=O)N[C@H](C(=O)N[C@@H](Cc1ccc(O)cc1)C(N)=O)[C@@H](C)O)C(C)C)[C@@H](C)O
notes: also called compound 87
Turning to B3, the IC50 in assay [5] worked out at 2.07 nM; with rat calcitonin receptor [7] it was 94.5 nM. Besides, the “Ratio hCT/hAmylin binding” value in assay [6] came to 35.6. In the assay with rat calcitonin receptor [8], the “Ratio rCT/rAmylin binding” value came to 45.6.
